From the Immune Epitope Database (IEDB)

Experiments:
Assay in all cases: IEDB peptide-MHC binding, purified MHC/competitive/radioactivity; ≥ and ≤ were set here for values at or beyond the usual limits of such assays
Conditions in all cases: source organism: Homo sapiens
[1] = biological target: HLA-A*02:01
[2] = biological target: HLA-A*11:01
[3] = biological target: HLA-A*03:01
[4] = biological target: HLA-B*27:05
[5] = biological target: HLA-A*30:01
[6] = biological target: HLA-A*01:01
[7] = biological target: HLA-A*33:01
[8] = biological target: HLA-B*08:01
[9] = biological target: HLA-A*31:01
[10] = biological target: HLA-A*68:01

| IC50 [1] [µM] | IC50 [2] [µM] | IC50 [3] [µM] | IC50 [4] [µM] | IC50 [5] [µM] | IC50 [6] [µM] | IC50 [7] [µM] | IC50 [8] [µM] | IC50 [9] [µM] | IC50 [10] [µM] | Sequence |
| --- | --- | --- | --- | --- | --- | --- | --- | --- | --- | --- |
| ≥ 20 | 6.43 | 4.5 | – | – | – | – | – | – | – | PVAIKTSPKAN |
| – | 0.133 | – | – | – | – | – | – | – | – | KITDFGLAK |
| ≥ 50 | 21.7 | 6.56 | 10.5 | 1.77 | ≥ 50 | 35.6 | ≥ 50 | 0.817 | 28.9 | RAKLLGAEEK |
| ≥ 20 | 0.862 | 0.253 | – | – | – | – | – | – | – | KIPVAIKTSPK |
| ≥ 20 | 1.63 | 1.85 | – | – | – | – | – | – | – | VAIKTSPKANK |
| ≥ 20 | 11.4 | 0.508 | – | – | – | – | – | – | – | KVKIPVAIKTS |
| ≥ 20 | ≥ 20 | ≥ 20 | – | – | – | – | – | – | – | IKTSPKANKE |
| ≥ 20 | ≥ 20 | ≥ 20 | – | – | – | – | – | – | – | AIKTSPKAN |
| ≥ 20 | 4.65 | 0.584 | – | – | – | – | – | – | – | AIKTSPKANK |
| ≥ 20 | 3.35 | 1.66 | – | – | – | – | – | – | – | IPVAIKTSPK |
| ≥ 20 | ≥ 20 | ≥ 20 | – | – | – | – | – | – | – | VKIPVAIKTSP |
| ≥ 20 | ≥ 20 | ≥ 20 | – | – | – | – | – | – | – | IKTSPKANKEI |
| 0.107 | ≥ 50 | ≥ 50 | 3.7 | 8.77 | ≥ 50 | ≥ 50 | 0.0266 | 8.45 | ≥ 50 | FGLAKLLGA |
| ≥ 20 | ≥ 20 | ≥ 20 | – | – | – | – | – | – | – | KTSPKANKEI |
| ≥ 50 | ≥ 50 | 42.9 | 0.0438 | ≥ 50 | ≥ 50 | ≥ 50 | ≥ 50 | 4.86 | ≥ 50 | GRAKLLGAEEK |
| ≥ 20 | ≥ 20 | ≥ 20 | – | – | – | – | – | – | – | IPVAIKTSPKA |
| ≥ 20 | 1.69 | 0.679 | – | – | – | – | – | – | – | KTSPKANK |
| ≥ 50 | ≥ 50 | 0.664 | 14.7 | ≥ 50 | ≥ 50 | ≥ 50 | 3.37 | 1.06 | ≥ 50 | GLAKLLGAEEK |
| ≥ 20 | ≥ 20 | ≥ 20 | – | – | – | – | – | – | – | IPVAIKTS |
| ≥ 20 | ≥ 20 | 16.5 | – | – | – | – | – | – | – | IKTSPKANK |

| IC50 [1] [µM] | IC50 [2] [µM] | IC50 [3] [µM] | IC50 [4] [µM] | IC50 [5] [µM] | IC50 [6] [µM] | IC50 [7] [µM] | IC50 [8] [µM] | IC50 [9] [µM] | IC50 [10] [µM] | Sequence |
| --- | --- | --- | --- | --- | --- | --- | --- | --- | --- | --- |
| ≥ 20 | ≥ 20 | ≥ 20 | – | – | – | – | – | – | – | IKTSPKAN |
| ≥ 20 | 15.1 | 11.2 | – | – | – | – | – | – | – | EKVKIPVAIKT |
| ≥ 50 | ≥ 50 | 43.5 | ≥ 50 | 37.3 | ≥ 50 | 20.3 | ≥ 50 | 29.9 | 2.01 | LAKLLGAEEK |
| ≥ 20 | ≥ 20 | ≥ 20 | – | – | – | – | – | – | – | VAIKTSPKAN |
| ≥ 20 | 9.92 | 1.59 | – | – | – | – | – | – | – | AIKTSPKANKE |
| ≥ 20 | ≥ 20 | ≥ 20 | – | – | – | – | – | – | – | KIPVAIKTSP |
| ≥ 20 | ≥ 20 | ≥ 20 | – | – | – | – | – | – | – | VKIPVAIKT |
| ≥ 20 | ≥ 20 | ≥ 20 | – | – | – | – | – | – | – | KIPVAIKT |
| ≥ 20 | ≥ 20 | ≥ 20 | – | – | – | – | – | – | – | AIKTSPKA |
| ≥ 20 | ≥ 20 | ≥ 20 | – | – | – | – | – | – | – | VAIKTSPKA |
| ≥ 20 | 1.98 | 3.68 | – | – | – | – | – | – | – | VAIKTSPK |
| ≥ 20 | ≥ 20 | ≥ 20 | – | – | – | – | – | – | – | KTSPKANKEIL |
| ≥ 50 | ≥ 50 | ≥ 50 | 41.3 | 7.63 | ≥ 50 | 6.53 | 0.475 | 4.67 | ≥ 50 | HVKITDFGL |
| ≥ 20 | 11.6 | 9.32 | – | – | – | – | – | – | – | PVAIKTSPKA |
| ≥ 20 | ≥ 20 | ≥ 20 | – | – | – | – | – | – | – | PVAIKTSP |
| ≥ 20 | ≥ 20 | ≥ 20 | – | – | – | – | – | – | – | KIPVAIKTS |
| ≥ 20 | ≥ 20 | ≥ 20 | – | – | – | – | – | – | – | VKIPVAIKTS |
| ≥ 20 | 0.782 | 0.529 | – | – | – | – | – | – | – | PVAIKTSPK |
| ≥ 20 | 10.2 | 0.397 | – | – | – | – | – | – | – | KVKIPVAIKT |
